In experiment [1] the target is T1, RAS Q61WT[55-64] pHLA-A1 (human).
T1 construct: also called Q61WT pHLA-A1; H/K/N RAS WT(55-64) peptide on HLA-A1
Nature of the experiment: flow cytometry: scFv phage supernatant on peptide-pulsed SigM5 cells (HLA-A1+), median fluorescence intensity. A general note: In flow cytometry, cells or beads pass a laser one at a time.

Experiment [2] addresses T1, RAS Q61WT[55-64] pHLA-A1. As to the kind of experiment: flow cytometry, phage on peptide-pulsed SigM5 cells; anti-M13, anti-rabbit PE.
The target of experiment [3] is T1, RAS Q61WT[55-64] pHLA-A1. Nature of the experiment: flow cytometry: scFv phage supernatant on peptide-pulsed SigM5 cells (HLA-A1+), median fluorescence intensity. The source holds these as a separate data set.
Protocol: Cells were stained with 50 μL of phage supernatant per 50 μL of cells, washed and stained with rabbit anti-M13 antibody, then washed and stained with anti-Rabbit-PE antibody. Cells were stained with a live/dead Near-IR dye, washed, and analyzed by an iQue Screener (IntelliCyt, Albuquerque, N. Mex.).
Monoclonal phage were grown and sequenced as described above. Phage supernatant from representative wells of each unique clone was selected for flow cytometry analysis. In each well of a deep 96-well 2 mL plate, 50 μL of monoclonal phage was incubated with 2.5×10⁵ peptide-pulsed SigM5 cells in 50 μL of stain buffer. Plates were incubated on ice for 1 hour, followed by washing with 1 mL of stain buffer. Cells were then stained with 1 μg of rabbit anti-M13 antibody (Novus Biologicals), washed, stained with anti-rabbit-PE (BioLegend), incubated with an additional 100 μL of LIVE/DEAD Fixable Near-IR dye diluted 1:1000 in PBS for 10 minutes at RT in the dark, followed by washing in stain buffer before analysis. Stained cells were analyzed using an Intellicyt iQue3 flow cytometer (Sartorius, Gottingen, Germany).
Experiment [4] has as its target p53^WT/HLA-A*02:01 pHLA (human). As to the kind of experiment: flow cytometry: scFv phage supernatant on peptide-pulsed T2 cells (HLA-A2+), median fluorescence intensity.
Protocol: Cells were stained with 50 μL of phage supernatant per 50 μL of cells, washed and stained with rabbit anti-M13 antibody, then washed and stained with anti-Rabbit-PE antibody. Cells were stained with a live/dead Near-infrared (IR) dye, washed, and analyzed by an iQue Screener (IntelliCyt, Albuquerque, N. Mex.).
The pulsed cells were pelleted, washed once in cold staining buffer (PBS containing 0.5% BSA, 2 mM EDTA, and 0.1% sodium azide), and resuspended in 50 μL of stain buffer. Phage staining was performed on ice with 50 μL monoclonal phage supernatant for 1 hour, followed by one 800 μL wash in cold staining buffer. Cells were then stained with 1 μg of rabbit anti-M13 antibody (Novus Biologics, Centennial, Colo.) in 100 μL total volume on ice for 1 hour and washed once with 800 μL of cold staining buffer. Cells were then stained with 5 μL anti-rabbit-PE (Biolegend) on ice for 1 hour in 100 μL total volume, followed by incubation with 200 μL LIVE/DEAD Fixable Near-IR Dead Cell Stain (Thermo Fisher) for 10 minutes at room temperature per manufacturer's instructions. Cells were washed once in 800 μL of staining buffer. Stained cells were analyzed using an iQue Screener (IntelliCyt, Albuquerque, N. Mex.).
Experiment [5] concerns the target T1, RAS Q61WT[55-64] pHLA-A1. Nature of the experiment: flow cytometry, phage on peptide-pulsed SigM5 cells; anti-M13, anti-rabbit PE. This is another data set of the same source.
In experiment [6] the target is p53^WT/HLA-A*02:01 pHLA (human). Nature of the experiment: ELISA, scDb on biotinylated pHLA on streptavidin plate; protein L, anti-protein L HRP.
Protocol: Streptavidin-coated, 96-well plates (R&D Systems, Minneapolis, Minn., CP004) were coated with 50 ng of biotinylated HLA-A*02:01 pHLA monomers in 50 μL of blocking buffer (PBS with 0.5% BSA, 2 mM EDTA, and 0.1% sodium azide) or 25 ng of recombinant human CD3/6 (Acro Biosystems, DE, CDD-H52W4) at 4° C. overnight. […] Serial dilutions of scDb or IgG was incubated on the plate for 1 hour at RT and washed.
Experiment [7] concerns the target T1, RAS Q61WT[55-64] pHLA-A1. Nature of the experiment: flow cytometry, phage on peptide-pulsed SigM5 cells; anti-M13, anti-rabbit PE. The source holds these as a separate data set.

B1: H/K/N RAS Q61H_A1_cl4 (scFv)
scFv: DIQMTQSPSSLSASVGDRVTITCRASQDVNTAVAWYQQKPGKAPKLLIYSASFLYSGVPSRFSGSRSGTDFTLTISSLQPEDFATYYCQQYDYYPFTFGQGTKVEIKRTGGGSGGGGSGGGASEVQLVESGGGLVQPGGSLRLSCAASGFNVFGYAIHWVRQAPGKGLEWVAEVYPGYDVTSYADSVKGRFTISADTSKNTAYLQMNSLRAEDTAVYYCSRYSWAGAFDYWGQGTLVTVSS
Turning to B1, the binding result in experiment [1] is “no binding”.

B2: H/K/N RAS Q61H_A1_cl3 (scFv)
scFv: DIQMTQSPSSLSASVGDRVTITCRASQDVNTAVAWYQQKPGKAPKLLIYSASFLYSGVPSRFSGSRSGTDFTLTISSLQPEDFATYYCQQSIYYPFTFGQGTKVEIKRTGGGSGGGGSGGGASEVQLVESGGGLVQPGGSLRLSCAASGFNLYTSQMHWVRQAPGKGLEWVALVYPGYYVTSYADSVKGRFTISADTSKNTAYLQMNSLRAEDTAVYYCSRGAYYYSSAMDYWGQGTLVTVSS
Consider B2, for which the binding result in experiment [1] is recorded as “no binding”.

B3: H/K/N RAS Q61H_A1_cl1 (H1) (scFv)
scFv: DIQMTQSPSSLSASVGDRVTITCRASQDVNTAVAWYQQKPGKAPKLLIYSASFLYSGVPSRFSGSRSGTDFTLTISSLQPEDFATYYCQQVIYYPFTFGQGTKVEIKRTGGGSGGGGSGGGASEVQLVESGGGLVQPGGSLRLSCAASGFNLYSYAIHWVRQAPGKGLEWVALLYPDYGVTSYADSVKGRFTISADTSKNTAYLQMNSLRAEDTAVYYCSRYRSYEYSVSSYSYSAMDYWGQGTLVTVSS
notes: also called Q61H clone H1; H1 scFv
On to B3, for which the binding result in experiment [2] is on record as “no binding (tested: single dose (50 µL phage supernatant))”.

B4: H/R/N RAS Q61R_A1_cl13 (scFv)
scFv: DIQMTQSPSSLSASVGDRVTITCRASQDVNTAVAWYQQKPGKAPKLLIYSASFLYSGVPSRFSGSRSGTDFTLTISSLQPEDFATYYCQQYSYDPITFGQGTKVEIKRTGGGSGGGGSGGGASEVQLVESGGGLVQPGGSLRLSCAASGFNFSYSAMHWVRQAPGKGLEWVADVVPDGDWTYYADSVKGRFTISADTSKNTAYLQMNSLRAEDTAVYYCSRGWYALDYWGQGTLVTVSS
For B4, the binding result in experiment [3] is recorded as “no binding”.

B5: p53_R175H_A2_cl15 (scFv)
scFv: DIQMTQSPSSLSASVGDRVTITCRASQDVNTAVAWYQQKPGKAPKLLIYSASFLYSGVPSRFSGSRSGTDFTLTISSLQPEDFATYYCQQSSYYPNTFGQGTKVEIKRTGGGSGGGGSGGGASEVQLVESGGGLVQPGGSLRLSCAASGFNLYQRDMHWVRQAPGKGLEWVAGLLYGSDHTEYADSVKGRFTISADTSKNTAYLQMNSLRAEDTAVYYCSRATYEEAFDYWGQGTLVTVSS
On to B5, for which the binding result in experiment [4] is given as “no binding”.

B6: p53_R175H_A2_cl16 (scFv)
scFv: DIQMTQSPSSLSASVGDRVTITCRASQDVNTAVAWYQQKPGKAPKLLIYSASFLYSGVPSRFSGSRSGTDFTLTITSLQPEDFATYYCQQQWSSPDTFGQGTKVEIKRTGGGSGGGGSGGGASEVQLVESGGGLVQPGGSLRLSCAASGFNLSYYDMHWVRQAPGKGLEWVALIYYGSGYTYYADSVKGRFTISADTSKNTAYLQMNSLRAEDTAVYYCSRGSYVSGMDYWGQGTLVTVSS
On to B6, for which the binding result in experiment [4] is reported as “no binding”.

B7: H/K/N RAS Q61H_A1_cl8 (scFv)
scFv: DIQMTQSPSSLSASVGDRVTITCRASQDVNTAVAWYQQKPGKAPKLLIYSASFLYSGVPSRFSGSRSGTDFTLTISSLQPEDFATYYCQQSFSTPITFGQGTKVEIKRTGGGSGGGGSGGGASEVQLVESGGGLVQPGGSLRLSCAASGFNISEYLMHWVRQAPGKGLEWVALLPPGLSYTNYADSVKGRFTISADTSKNTAYLQMNSLRAEDTAVYYCSRYGYYAFDYWGQGTLVTVSS
B7: the binding result in experiment [1] was “no binding”.

B8: H/K/N RAS Q61H_A1_cl10 (scFv)
scFv: DIQMTQSPSSLSASVGDRVTITCRASQDVNTAVAWYQQKPGKAPKLLIYSASFLYSGVPSRFSGSRSGTDFTLTISSLQPEDFATYYCQQTYYTPVTFGQGTKVEIKRTGGGSGGGGSGGGASEVQLVESGGGLVQPGGSLRLSCAASGFNISHYVMHWVRQAPGKGLEWVADFYPHSDSTYYADSVKGRFTISADTSKNTAYLQMNSLRAEDTAVYYCSRYQSYSFDYWGQGTLVTVSS
For the molecule B8, the binding result in experiment [1] was “no binding”.

B9: H/R/N RAS Q61R_A1_cl19 (scFv)
scFv: DIQMTQSPSSLSASVGDRVTITCRASQDVNTAVAWYQQKPGKAPKLLIYSASFLYSGVPSRFSGSRSGTDFTLTISSLQPEDFATYYCQQLMYDPITFGQGTKVEIKRTGGGSGGGGSGGGASEVQLVESGGGLVQPGGSLRLSCAASGFNFGTYWMHWVRQAPGKGLEWVAWFLPDYDYTLYADSVKGRFTISADTSKNTAYLQMNSLRAEDTAVYYCSRHGEYAFDYWGQGTLVTVSS
In the case of B9, the binding result in experiment [3] is listed as “no binding”.

B10: H/R/N RAS Q61R_A1_cl18 (scFv)
scFv: DIQMTQSPSSLSASVGDRVTITCRASQDVNTAVAWYQQKPGKAPKLLIYSASFLYSGVPSRFSGSRSGTDFTLTISSLQPEDFATYYCQQYIYDPVTFGQGTKVEIKRTGGGSGGGGSGGGASEVQLVESGGGLVQPGGSLRLSCAASGFNVDWAWMHWVRQAPGKGLEWVAWVVGGSDYTYYADSVKGRFTISADTSKNTAYLQMNSLRAEDTAVYYCSRSYYYAFDYWGQGTLVTVSS
In the case of B10, in experiment [3], the binding result was “no binding”.

B11: p53_R175H_A2_cl6 (scFv)
scFv: DIQMTQSPSSLSASVGDRVTITCRASQDVNTAVAWYQQKPGKAPKLLIYSASFLYSGVPSRFSGSRSGTDFTLTISSLQPEDFATYYCQQQSSTPVTFGQGTKVEIKRTGGGSGGGGSGGGASEVQLVESGGGLVQPGGSLRLSCAASGFNVYQSDMHWVRQAPGKGLEWVATIWPYSGYTYYADSVKGRFTISADTSKNTAYLQMNSLRAEDTAVYYCSRDGMYAFDYWGQGTLVTVSS
For B11, in experiment [4], the binding result is on record as “no binding”.

B12: H/K/N RAS Q61H_A1_cl2 (scFv)
scFv: DIQMTQSPSSLSASVGDRVTITCRASQDVNTAVAWYQQKPGKAPKLLIYSASFLYSGVPSRFSGSRSGTDFTLTISSLQPEDFATYYCQQYDYYPFTFGQGTKVEIKRTGGGSGGGGSGGGASEVQLVESGGGLVQPGGSLRLSCAASGFNISYEAMHWVRQAPGKGLEWVALIYPNHGITSYADSVKGRFTISADTSKNTAYLQMNSLRAEDTAVYYCSRYSSSAMDYWGQGTLVTVSS
As to B12, the binding result in experiment [1] is “no binding”.

B13: H/K/N RAS Q61H_A1_cl5 (scFv)
scFv: DIQMTQSPSSLSASVGDRVTITCRASQDVNTAVAWYQQKPGKAPKLLIYSASFLYSGVPSRFSGSRSGTDFTLTISSLQPEDFATYYCQQSSYSPWTFGQGTKVEIKRTGGGSGGGGSGGGASEVQLVESGGGLVQPGGSLRLSCAASGFNISPWDMHWVRQAPGKGLEWVAQLYPSSGYTNYADSVKGRFTISADTSKNTAYLQMNSLRAEDTAVYYCSRSVYWSLDYWGQGTLVTVSS
Turning to B13, in experiment [1], the binding result was “no binding”.

B14: H/R/N RAS Q61R_A1_cl6 (R6) (scFv)
scFv: DIQMTQSPSSLSASVGDRVTITCRASQDVNTAVAWYQQKPGKAPKLLIYSASFLYSGVPSRFSGSRSGTDFTLTISSLQPEDFATYYCQQYSNYPLTFGQGTKVEIKRTGGGSGGGGSGGGASEVQLVESGGGLVQPGGSLRLSCAASGFNVFYGSMHWVRQAPGKGLEWVAFIGPDSTYTYYADSVKGRFTISADTSKNTAYLQMNSLRAEDTAVYYCSRDLGSAYAMDYWGQGTLVTVSS
notes: also called Q61R clone R6; R6 scFv
With B14, the binding result in experiment [5] is “no binding (tested: single dose (50 µL phage supernatant))”.

B15: H20-UCHT1-scDb (bispecific antibody)
chain: DIQMTQSPSSLSASVGDRVTITCRASQDVNTAVAWYQQKPGKAPKLLIYSASFLYSGVPSRFSGSRSGTDFTLTISSLQPEDFATYYCQQSNAYPITFGQGTKVEIKGGGGSEVQLQQSGPELVKPGASMKISCKASGYSFTGYTMNWVKQSHGKNLEWMGLINPYKGVSTYNQKFKDKATLTVDKSSSTAYMELLSLTSEDSAVYYCARSGYYGDSDWYFDVWGAGTTVTVSSGGGGSGGGGSGGGGSDIQMTQTTSSLSASLGDRVTISCRASQDIRNYLNWYQQKPDGTVKLLIYYTSRLHSGVPSKFSGSGSGTDYSLTISNLEQEDIATYFCQQGNTLPWTFAGGTKLEIKGGGGSEVQLVESGGGLVQPGGSLRLSCAASGFNLNSYYMHWVRQAPGKGLEWVAMIIPGYGYTNYADSVKGRFTISADTSKNTAYLQMNSLRAEDTAVYYCSRSYYMYMDYWGQGTLVTVSSHHHHHH
notes: single-chain diabody of H20 with the anti-CD3 scFv UCHT1; also called H20-scDb
As to B15, the binding result in experiment [6] is reported as “binds”.

B16: H/K/N RAS Q61H_A1_cl9 (scFv)
scFv: DIQMTQSPSSLSASVGDRVTITCRASQDVNTAVAWYQQKPGKAPKLLIYSASFLYSGVPSRFSGSRSGTDFTLTISSLQPEDFATYYCQQGEYSPLTFGQGTKVEIKRTGGGSGGGGSGGGASEVQLVESGGGLVQPGGSLRLSCAASGFNVFESAMHWVRQAPGKGLEWVAWVYGSYDYTYYADSVKGRFTISADTSKNTAYLQMNSLRAEDTAVYYCSRSFAYFQAMDYWGQGTLVTVSS
As for B16, the binding result in experiment [1] is listed as “no binding”.

B17: H/K/N RAS Q61L_A1_cl2 (L2) (scFv)
scFv: DIQMTQSPSSLSASVGDRVTITCRASQDVNTAVAWYQQKPGKAPKLLIYSASFLYSGVPSRFSGSRSGTDFTLTISSLQPEDFATYYCQQAVSYPWTFGQGTKVEIKRTGGGSGGGGSGGGASEVQLVESGGGLVQPGGSLRLSCAASGFNISSSGIHWVRQAPGKGLEWVAMVYGGSGYTNYADSVKGRFTISADTSKNTAYLQMNSLRAEDTAVYYCSRWAHYSAYMDYWGQGTLVTVSS
notes: also called Q61L clone L2; L2 scFv
On to B17, for which, in experiment [7], the binding result is “no binding (tested: single dose (50 µL phage supernatant))”.

Values taken from US20230051847A1 (Johns Hopkins, published 2023).
